Experimental data as given in US8017576B2, “Methods and compositions to treat mucositis” (The University of Chicago, priority 2005, dated 2011).

B1: rhAMP-18: recombinant human AMP-18 prepared in E. coli; Antrum Mucosal Protein-18 (gastrokine-1) (protein, UniProt Q9NS71 21-185, looked up)
Gastrokine-1: NYNINVNDDNNNAGSGQQSVSVNNEHNVANVDNNNGWDSWNSIWDYGNGFAATRLFQKKTCIVHKMNKEVMPSIQSLDALVKEKKLQGKGPGGPPPKGLMYSVNPNKVDDLSKFGKNIANMCRGIPTYMAEEMQEASLFFYSGTCYTTSVLWIVDISFCGDTVEN
B2: KGF-1: keratinocyte growth factor, known epithelial cell mitogen (protein, UniProt P21781 32-194, looked up)
Fibroblast growth factor 7: CNDMTPEQMATNVNCSSPERHTRSYDYMEGGDIRVRRLFCRTQWYLRIDKRGKVKGTQEMKNNYNIMEIRTVAVGIVAIKGVESEFYLAMNKEGKLYAKKECNEDCNFKELILENHYNTYASAKWTHNGGEMFVALNQKGIPVRGKKTKKEQKTAHFLPMAIT

Columns and labels:
[1] = tested on: stomach and intestinal epithelial cells; assay: Mitogenic and physiological effects on stomach and intestinal epithelial cells; type: cell-based
Source text: The synthesis of AMP-18 is confined to lumenal mucosal lining epithelial cells of the gastric antrum of humans and other mammals. Inside cells the protein is co-localized with mucins in secretion granules, and appears to be secreted into the mucus overlying the apical plasma membrane. […] These include mitogenesis, restitution, maturation of barrier function, and cell protection after oxidant, non-steroidal anti-inflammatory (NSAID), and DSS-mediated injury. Certain of these physiological effects can occur at concentrations that are relatively low for rhAMP-18 (<50 μM) compared to the concentrations of other gastric peptide mediators such as trefoil peptides or the α-defensin, cryptdin 3 (>100 μM). […] AMP-18 likely plays a role in physiological and pathological processes such as wound healing in the gastric mucosal epithelium in vivo as may occur in gastritis secondary to NSAID drugs, other pharmaceutical agents and alcohol, ulcer disease, and the consequences of H. pylori infection and inflammation.

[2] = tested on: human colonic Caco2 (C2) cell monolayers; assay: Tight junction recovery after low-calcium disruption, ZO-1 confocal microscopy; type: cell-based; conditions: low-calcium medium (3 μM) 1 hour, assessed 2 hours after addition; AMP peptide 8 μg/ml, KGF-1 100 ng/ml, EGF 100 ng/ml
Experimental: The AMP77-97 peptide prevented decreases in TJ proteins and epithelial integrity seen after treatment of human colonic Caco2 (C2) cell monolayers with the oxidant monochloramine, which disrupts intercellular junctions (FIG. 2; C,D). These cells were exposed to low-calcium medium (3 μM) for 1 hr to disrupt TJs, and then allowed to recover in medium containing AMP77-97 peptide, epidermal growth factor (EGF) or keratinocyte growth factor (KGF-1) which are known epithelial cell mitogens that might facilitate recovery of disrupted TJs. […] At the molecular level, AMP77-97 peptide facilitates the formation of TJs by enhancing translocation of several proteins (protein kinase C-zeta, Par6, Cdc42, ECT2 and Par3) from the cytosol into TJ domains.
Localization of the tight junction protein ZO-1 was monitored by indirect immunofluorescence laser scanning confocal microscopy in confluent monolayers of C2 cells. […] To disrupt tight junctions, cells were switched to low-calcium medium (3 μM) for 1 hour. Then a growth factor at a known mitogenic concentration was added to the medium, and 2 hours later its effect on tight junction formation was assessed by confocal microscopy. Vehicle, AMP peptide (8 μg/ml), KGF-1 (100 ng/ml), and EGF (100 ng/ml) were compared.

| Molecule | concentration for mitogenic effect relative to growth-promoting synthetic peptides ([1]; recombinant protein prepared in E. coli) | concentrations at which physiological effects occur ([1]; rhAMP-18) | formation of new tight junctions / localization of ZO-1 [2] |
| --- | --- | --- | --- |
| B1 | an order of magnitude lower | < 50 μM |  |
| B2 |  |  | persistent separation of cells with TJ disruption and apparent loss of ZO-1 |
